Experimental data published in patent US20230338423A1 (published 2023).

T1: V5-SUSD2 (human SUSD2, V5-tagged) (human, UniProt Q9UGT4 28-822)
T1 construct: Overexpressed in 293T cells or Jurkat T cells; also called SUSD2^WT; not shown: V5 and His tag
T1 sequence: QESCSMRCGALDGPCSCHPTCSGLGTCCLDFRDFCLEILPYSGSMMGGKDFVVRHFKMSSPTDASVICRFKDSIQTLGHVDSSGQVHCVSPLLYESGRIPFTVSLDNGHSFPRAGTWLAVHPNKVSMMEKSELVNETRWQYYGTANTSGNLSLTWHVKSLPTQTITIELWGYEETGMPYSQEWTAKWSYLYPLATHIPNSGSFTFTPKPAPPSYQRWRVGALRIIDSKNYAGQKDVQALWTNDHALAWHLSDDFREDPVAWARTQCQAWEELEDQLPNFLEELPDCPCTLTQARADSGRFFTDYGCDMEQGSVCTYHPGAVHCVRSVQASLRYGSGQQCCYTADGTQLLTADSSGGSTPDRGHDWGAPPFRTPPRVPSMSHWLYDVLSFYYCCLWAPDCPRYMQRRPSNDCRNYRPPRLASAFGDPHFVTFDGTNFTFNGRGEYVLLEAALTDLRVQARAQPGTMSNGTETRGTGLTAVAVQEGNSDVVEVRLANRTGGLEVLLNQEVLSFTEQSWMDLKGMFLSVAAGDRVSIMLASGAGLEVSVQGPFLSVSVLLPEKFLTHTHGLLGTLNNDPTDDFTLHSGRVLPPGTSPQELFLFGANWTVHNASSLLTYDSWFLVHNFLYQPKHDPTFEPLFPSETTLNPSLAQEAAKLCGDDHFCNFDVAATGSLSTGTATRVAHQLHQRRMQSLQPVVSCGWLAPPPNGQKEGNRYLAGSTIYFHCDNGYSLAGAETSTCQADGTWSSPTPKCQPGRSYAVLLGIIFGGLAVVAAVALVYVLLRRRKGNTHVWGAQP

T2: V5-tagged mouse Susd2 (mouse, UniProt Q9DBX3 23-820)
T2 construct: Retrovirally expressed in Susd2-/- OT-I T cells and precipitated from RIPA lysates with anti-V5 agarose; also called V5-Susd2; pMIG II-Susd2; not shown: V5 and His tag
T2 sequence: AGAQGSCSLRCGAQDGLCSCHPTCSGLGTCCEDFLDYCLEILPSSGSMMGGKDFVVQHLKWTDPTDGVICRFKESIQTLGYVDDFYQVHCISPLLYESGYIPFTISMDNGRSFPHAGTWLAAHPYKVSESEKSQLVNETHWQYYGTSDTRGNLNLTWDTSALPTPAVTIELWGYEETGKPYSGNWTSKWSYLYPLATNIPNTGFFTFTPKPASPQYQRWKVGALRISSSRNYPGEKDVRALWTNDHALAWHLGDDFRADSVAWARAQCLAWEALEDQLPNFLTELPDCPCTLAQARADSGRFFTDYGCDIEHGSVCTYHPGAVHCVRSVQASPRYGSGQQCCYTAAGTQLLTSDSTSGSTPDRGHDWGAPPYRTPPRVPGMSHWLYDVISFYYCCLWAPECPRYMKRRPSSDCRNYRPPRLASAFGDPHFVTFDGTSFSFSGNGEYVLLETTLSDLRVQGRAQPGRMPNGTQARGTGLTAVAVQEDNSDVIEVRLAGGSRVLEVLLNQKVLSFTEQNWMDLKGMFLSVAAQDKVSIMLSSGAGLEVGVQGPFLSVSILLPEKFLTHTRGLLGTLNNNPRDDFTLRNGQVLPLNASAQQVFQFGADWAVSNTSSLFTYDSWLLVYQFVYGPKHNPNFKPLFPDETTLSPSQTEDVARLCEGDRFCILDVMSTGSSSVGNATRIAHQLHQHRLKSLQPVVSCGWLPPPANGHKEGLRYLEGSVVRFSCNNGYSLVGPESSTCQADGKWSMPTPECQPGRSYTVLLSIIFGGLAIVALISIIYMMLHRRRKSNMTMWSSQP

B1: endogenous IL-2Rα in human Jurkat T cells (receptor, UniProt P01589 22-272, looked up)
chain: ELCDDDPPEIPHATFKAMAYKEGTMLNCECKRGFRRIKSGSLYMLCTGNSSHSSWDNQCQCTSSATRNTTKQVTPQPEEQKERKTTEMQSPMQPVDQASLPGHCREPPPWENEATERIYHFVVGQMVYYQCVQGYRALHRGPAESVCKMTHGKTRWTQPQLICTGEMETSQFPGEEKPQASPEGRPESETSCLVTTTDFQIQTEMAATMETSIFTTEYQVAVAGCVFLLISVLLLSGLTWQRRQRKSRRTI
notes: whole, on cells; Endogenous protein, pulled down from Jurkat lysate
B2: mouse IL-2Rβ (endogenous, OT-I T cells) (receptor, UniProt P16297 27-539, looked up)
chain: AVKNCSHLECFYNSRANVSCMWSHEEALNVTTCHVHAKSNLRHWNKTCELTLVRQASWACNLILGSFPESQSLTSVDLLDINVVCWEEKGWRRVKTCDFHPFDNLRLVAPHSLQVLHIDTQRCNISWKVSQVSHYIEPYLEFEARRRLLGHSWEDASVLSLKQRQQWLFLEMLIPSTSYEVQVRVKAQRNNTGTWSPWSQPLTFRTRPADPMKEILPMSWLRYLLLVLGCFSGFFSCVYILVKCRYLGPWLKTVLKCHIPDPSEFFSQLSSQHGGDLQKWLSSPVPLSFFSPSGPAPEISPLEVLDGDSKAVQLLLLQKDSAPLPSPSGHSQASCFTNQGYFFFHLPNALEIESCQVYFTYDPCVEEEVEEDGSRLPEGSPHPPLLPLAGEQDDYCAFPPRDDLLLFSPSLSTPNTAYGGSRAPEERSPLSLHEGLPSLASRDLMGLQRPLERMPEGDGEGLSANSSGEQASVPEGNLHGQDQDRGQGPILTLNTDAYLSLQELQAQDSVHLI
notes: whole, on cells; Endogenous, probed by immunoblot in Susd2 precipitates; also called CD122
B3: mouse common γ chain (endogenous, OT-I T cells) (receptor, UniProt P34902 23-369, looked up)
chain: WSSKVLMSSANEDIKADLILTSTAPEHLSAPTLPLPEVQCFVFNIEYMNCTWNSSSEPQATNLTLHYRYKVSDNNTFQECSHYLFSKEITSGCQIQKEDIQLYQTFVVQLQDPQKPQRRAVQKLNLQNLVIPRAPENLTLSNLSESQLELRWKSRHIKERCLQYLVQYRSNRDRSWTELIVNHEPRFSLPSVDELKRYTFRVRSRYNPICGSSQQWSKWSQPVHWGSHTVEENPSLFALEAVLIPVGTMGLIITLIFVYCWLERMPPIPPIKNLEDLVTEYQGNFSAWSGVSKGLTESLQPDYSERFCHVSEIPPKGGALGEGPGGSPCSLHSPYWPPPCYSLKPEA
notes: whole, on cells; Endogenous, probed by immunoblot in Susd2 precipitates; also called common 7 chain
B4: mouse IL-15Rα (endogenous, OT-I T cells) (receptor, UniProt Q60819 33-263, looked up)
chain: GTTCPPPVSIEHADIRVKNYSVNSRERYVCNSGFKRKAGTSTLIECVINKNTNVAHWTTPSLKCIRDPSLAHYSPVPTVVTPKVTSQPESPSPSAKEPEAFSPKSDTAMTTETAIMPGSRLTPSQTTSAGTTGTGSHKSSRAPSLAATMTLEPTASTSLRITEISPHSSKMTKVAISTSVLLVGAGVVMAFLAWYIKSRQPSQPCRVEVETMETVPMTVRASSKEDEDTGA
notes: whole, on cells; Endogenous, probed by immunoblot in Susd2 precipitates

Tests used:
[1] = molecular target: T1, V5-SUSD2 (human SUSD2, V5-tagged); experiment: anti-V5 immunoprecipitation and immunoblot, Jurkat T cells
Method: (§1) Immunoprecipitation and immunoblotting. For immunoprecipitation, cells were lysed in RIPA buffer supplemented with cOmplete™ Protease Inhibitor Cocktail (Sigma-Aldrich). […] Samples were washed 5 times with cold RIPA buffer. To elute proteins from the beads, samples were incubated with 30 μl of SDS sample buffer at 95° C. for 10 minutes. Protein content in the supernatant was analyzed by immunoblotting. For immunoblotting, electrophoresis of protein was performed by using the NuPAGE system (Invitrogen) according to the manufacturer's protocol. Briefly, cultured CD8⁺ T cells or Jurkat cells were collected and lysed with RIPA buffer. Proteins were separated on a NuPAGE precast gel and were transferred onto nitrocellulose membranes (Bio-Rad). Appropriate primary antibodies and HRP-conjugated secondary antibodies were used and proteins were detected using the Enhanced Chemiluminescent (ECL) reagent (Thermo Fisher Scientific).

[2] = molecular target: T2, V5-tagged mouse Susd2; experiment: anti-V5 immunoprecipitation and immunoblot, Susd2-reconstituted Susd2-/- OT-I T cells
Method: as §1

Binder	binding result [1]	binding result [2]
B1	binds	–
B2	–	no binding
B3	–	no binding
B4	–	no binding
